Molecular target: T1, ROCK1 kinase domain (residue 1-415) protein (human, UniProt Q13464 1-415)
T1 construct: ROCK1 kinase domain, residues 1-415, expressed in Sf9 cells; source: Spodoptera frugiperda cells (Sf9)
Experiment: SPR; Biacore T200; ROCK1 kinase domain immobilised on CM5 chip by amine coupling (3400 RU); full-length TRIM40 injected at eight concentrations, 30 μl/min, HBS-EP+ buffer (10 mM HEPES, 150 mM NaCl, 3 mM EDTA, 0.05% P20), 25 °C
Details: both partners purified

T1 sequence (Q13464 1-415): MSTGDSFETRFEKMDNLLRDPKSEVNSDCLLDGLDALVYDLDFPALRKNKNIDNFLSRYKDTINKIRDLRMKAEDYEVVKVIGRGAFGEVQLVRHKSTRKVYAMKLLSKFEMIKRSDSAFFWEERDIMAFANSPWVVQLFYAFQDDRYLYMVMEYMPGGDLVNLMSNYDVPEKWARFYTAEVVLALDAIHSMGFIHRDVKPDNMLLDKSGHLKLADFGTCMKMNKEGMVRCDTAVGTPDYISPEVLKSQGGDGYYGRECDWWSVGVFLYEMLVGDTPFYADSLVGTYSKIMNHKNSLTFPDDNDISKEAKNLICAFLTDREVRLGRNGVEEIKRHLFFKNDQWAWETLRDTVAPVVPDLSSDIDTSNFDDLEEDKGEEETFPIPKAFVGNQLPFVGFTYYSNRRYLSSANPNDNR

- Kd: 2.25 µM
B1: Full length TRIM40 protein (recombinant, for SPR) (natural protein, human, UniProt Q6P9F5 1-258, looked up)
chain: MIPLQKDNQEEGVCPICQESLKEAVSTNCGHLFCRVCLTQHVEKASASGVFCCPLCRKPCSEEVLGTGYICPNHQKRVCRFCEESRLLLCVECLVSPEHMSHHELTIENALSHYKERLNRRSRKLRKDIAELQRLKAQQEKKLQALQFQVDHGNHRLEAGPESQHQTREQLGALPQQWLGQLEHMPAEAARILDISRAVTQLRSLVIDLERTAKELDTNTLKNAGDLLNRSAPQKLEVIYPQLEKGVSELLLQPPQKL
notes: full length TRIM40 expressed in E. coli BL21 (DE3); source: Escherichia coli BL21 (DE3)

Source: article PMC9908899, “TRIM40 is a pathogenic driver of inflammatory bowel disease subverting intestinal barrier integrity” (Nature Communications, 2023)
